These results are taken from the supplement of paper PMC9170038.

The subject of this series is MS2 coat protein. Nature of the series: apparent KD of MS2 coat protein; higher = weaker reporter binding. Conditions: Eterna round: R107. The protocol: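 RNA-MaP round R107: designed RNA switches with theophylline, tryptophan, arginine or FMN aptamers are transcribed on-chip within common flanks. They are titrated with SNAP-549-labelled MS2 coat protein in RNA-MaP buffer (100 mM Tris pH 7.5, 80 mM KCl, 4 mM MgCl2), without ligand or with the indicated ligand. Median apparent KD per design.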

Setting [1] is: input ligand: theophylline 20 uM.
Setting [2] is: input ligand: theophylline 2 mM.
Where [3] appears, read: input ligand: tryptophan 2.4 mM.

With “UUAAUCAUAUUAGAAAACUAAUAUGCAGAAGGAGCGUGAUAAAACACAGGUAGGUCGCUGAAGGGAACAUGAGGAUCACCCAUGU [AstrosSSArgA#8]”, the “apparent KD of MS2 coat protein” value is, setting by setting: (input ligand: arginine 13.2 mM) 26.5 nM; (input ligand: none) 25.7 nM; under setting [1], 32.7 nM; under setting [2], 33 nM; under setting [3], 26 nM.

Regarding “UGUAUGGACUGAAGGAGCGGGAAAAUAAGAUGAGGAUCACCCAUCUAAAAGGCGAAAGCCACCCAGGUAGGUCGCAGUCCAUACU”, the “apparent KD of MS2 coat protein” value (input ligand: arginine 13.2 mM) was 27.7 nM; the “apparent KD of MS2 coat protein” value (input ligand: none) was 8.99 nM; the “apparent KD of MS2 coat protein” value under setting [1] is 34.8 nM; the “apparent KD of MS2 coat protein” value under setting [2] turned out to be 8.34 nM; the “apparent KD of MS2 coat protein” value under setting [3] worked out at 7.03 nM.

Take “CUCUGGUGCUGAGUGAGUGUCGUGACUGAUACCAGAUGCCUUUACAUCCCUUGGCAGCAGUACAUGAGGAUCACCCAUGUAUUCC [Rireusrama]”: the “apparent KD of MS2 coat protein” value stood at 17.2 nM (input ligand: arginine 13.2 mM), 33.5 nM under setting [1] and 21.1 nM under setting [3].

As for “GGGUCAGGCGCGGCCGCCACUGCGGUGAUGUGACAUGAGGAUCACCCAUGUUGUCAUGUGGCACAUAGGACCGGGUGCCUGGCCC [#1 Exclusion - Tryptophan B Attempt #6 (HarryS)]”, the “apparent KD of MS2 coat protein” value by setting is: (input ligand: arginine 13.2 mM) 28.3 nM; under setting [1], 50.2 nM; under setting [2], 33.8 nM.

With “UGUCGCAGGUUAGAUACCAGCGAGGCGCGGGUAAAUGUUCACAUGAGGAUCACCCAUGUUCGCCCUUGGCAGCUAGUAGGCAUAA [theeternabot_exclusion_MS2_Theo_B_36]”, the “apparent KD of MS2 coat protein” value reads like this: (input ligand: arginine 13.2 mM) 23.9 nM; under setting [1], 34 nM; under setting [3], 27.3 nM.

For the sequence “GGUCUGUGGAGCGAUACCAGCUUGAGUGUACUGGCCAGGUACAUGAGGAUCACCCAUGUAAGCCCUUGGCAGCGCUCCAGAGACC [#1 Exclusion - Theophylline B Attempt #17 (HarryS)]”, the “apparent KD of MS2 coat protein” value was determined as 7.42 nM (input ligand: arginine 13.2 mM); 9.29 nM (input ligand: none); 13.8 nM under setting [1]; 31.5 nM under setting [2]; 10.9 nM under setting [3].

As to “CUUACGGGAAACCGACCCAAACAACGGGAAGGAGCGCCAAACAAGGCAGGUAGGUCGCCCACAUGAGGAUCACCCAUGUGUUGGG [Exclusion Arginine A GF 26]”, the “apparent KD of MS2 coat protein” value amounted to 42.6 nM (input ligand: arginine 13.2 mM); 38 nM (input ligand: none); 47.7 nM under setting [1]; 42.3 nM under setting [2]; 45.1 nM under setting [3].

As to “AAUAAUAGGUGAUCUUGAGUCGUACCGUAACGAGGACCGGUACGGCCGCCACUCGAACAUGAGGAUCACCCAUGUAUGUAUGAUA [whbob_SS_trypto A_f6]”, the “apparent KD of MS2 coat protein” value reads like this: (input ligand: arginine 13.2 mM) 48.6 nM; under setting [1], 128 nM; under setting [2], 276 nM.

In the case of “AUGGCGUUGGUGGAGCGGUGAAAUGGCGAUACCAGCGUGGAAACACGCCCUUGGCAGCGCCAAAACAUGAGGAUCACCCAUGUUA [Usti]”, the “apparent KD of MS2 coat protein” value (input ligand: arginine 13.2 mM) is 18.9 nM; the “apparent KD of MS2 coat protein” value (input ligand: none) was 20.3 nM; the “apparent KD of MS2 coat protein” value under setting [1] is 46 nM; the “apparent KD of MS2 coat protein” value under setting [2] was determined as 59.8 nM; the “apparent KD of MS2 coat protein” value under setting [3] worked out at 18.1 nM.

As for “UGAUGGAACGGAAGGAGCGUGUAAGAACAAGAACAUGAGGAUCACCCAUGUAUUAAUUUAACACAGGUAGGUCGCCGAGUUAUUG [11.F]”, the “apparent KD of MS2 coat protein” value runs as follows: (input ligand: arginine 13.2 mM) 9.42 nM; (input ligand: none) 16.9 nM; under setting [1], 42.1 nM; under setting [2], 28.6 nM; under setting [3], 15.9 nM.

For “UUAUUUAUAGGGUAUAUCAGAUUAACUGAAGGAGCGUGGUAAUUCACAGGUAGGUCGCAGAUGGAACAUGAGGAUCACCCAUGUU [JR_ExcArginiA_Sub015]”, the “apparent KD of MS2 coat protein” value was found to be 18.2 nM (input ligand: arginine 13.2 mM); 19.2 nM (input ligand: none); 28.5 nM under setting [1]; 22.2 nM under setting [2]; 20.8 nM under setting [3].

As for “AUCUCGUUCAAUAUACCGCCUUGACUAGAUACCAGCAUGGACCCAUGCCCUUGGCAGCUGGACAUGAGGAUCACCCAUGUUUCAG [SSTheo A #27]”, the “apparent KD of MS2 coat protein” value by setting is: (input ligand: arginine 13.2 mM) 10.7 nM; under setting [1], 14.8 nM; under setting [3], 10.8 nM.

For “UACGCUAGGGCGGCCGCCACUCGGACAUGAGGAUCACCCAUGUCGAUUAAUUGAAGGACAUGAAUGAGGACCGGGCUAAGCUAGG [Same State - Tryptophan B / B]”, the “apparent KD of MS2 coat protein” value by setting is: (input ligand: arginine 13.2 mM) 20.8 nM; (input ligand: none) 29.4 nM; under setting [1], 38.9 nM; under setting [2], 27.1 nM; under setting [3], 23.4 nM.

Turning to “UAUAACAUGAGGAUCACCCAUGUAAGUGAUACCAGAUAAAUAAUAGUCCCUUGGCAGCAUAUUGGGAAAAUGUAUAAUAUAUAUU [Same State - Theophylline A (Freestyle 1)]”, the “apparent KD of MS2 coat protein” value came to 49.9 nM (input ligand: arginine 13.2 mM), 72.1 nM under setting [1] and 49.4 nM under setting [3].

Regarding “AAGCAGGGUGUAAAAUAAAUAAUCACUGAUACCAGACUAUGAGAUGUCCCUUGGCAGCAGAAACAUGAGGAUCACCCAUGUAAUA [JR_Nu_ExcTheophyA_Sub029]”, the “apparent KD of MS2 coat protein” value is, setting by setting: (input ligand: arginine 13.2 mM) 21.1 nM; under setting [1], 28.4 nM; under setting [3], 27.3 nM.

Regarding “UGUAUGUGAUCUGAUACCAGACGUGUAAACCUGAGGAUCACCCUGGUAAGGCGAAAGCCAGUCCCUUGGCAGCAGAUCGCAUACU”, the “apparent KD of MS2 coat protein” value by setting is: (input ligand: arginine 13.2 mM) 47.7 nM; (input ligand: none) 49 nM; under setting [1], 40 nM; under setting [2], 21.5 nM; under setting [3], 50 nM.

As to “ACACCGAAAGGUGCAUUUUCCUUUUCAGAUACCAGACUUUACGUUGUCCCUUGGCAGCUGUAUCACAUGAGGAUCACCCAUGUUG [JR_SSTheophyA_Sub012]”, the “apparent KD of MS2 coat protein” value (input ligand: arginine 13.2 mM) was found to be 16 nM, the “apparent KD of MS2 coat protein” value under setting [1] was 21.4 nM and the “apparent KD of MS2 coat protein” value under setting [3] is 15.9 nM.

For the sequence “AACAUACAAUUUUAGGUGGAUAUAAGGCGGCGAGGACCGGUACGGCCGCCACUCGCGUACAUGAGGAUCACCCAUGUCUGAAGCU [Same State - Tryptophan A (Freestyle 6)]”, the “apparent KD of MS2 coat protein” value reads like this: (input ligand: arginine 13.2 mM) 12.8 nM; (input ligand: none) 21.7 nM; under setting [1], 21.7 nM; under setting [2], 27.3 nM; under setting [3], 21.4 nM.

On to “UGUAUGGGAACAUGAGGAUCACCCAUGUGGCGAGGACCGGUACGGCCGCCACUCGAGCAGCAAGCGUGUAUGACGCUGCUGCAUG [ss-trypA-0mod]”, for which the “apparent KD of MS2 coat protein” value is, setting by setting: (input ligand: arginine 13.2 mM) 225 nM; (input ligand: none) 312 nM; under setting [1], 377 nM; under setting [2], 324 nM; under setting [3], 136 nM.

For the sequence “GGGCUUGUGGUGCGGCGUGUUCCGCUCCGUCGAGGACCGGUACGGCCGCCACUCGACAUGAGGAUCACCCAUGUGCGAGCGCGCG [#1 Exclusion - Tryptophan A Attempt #7 (HarryS)]”, the “apparent KD of MS2 coat protein” value (input ligand: arginine 13.2 mM) came out at 11.4 nM; the “apparent KD of MS2 coat protein” value (input ligand: none) turned out to be 17.3 nM; the “apparent KD of MS2 coat protein” value under setting [1] was found to be 16.1 nM; the “apparent KD of MS2 coat protein” value under setting [2] came to 15.4 nM; the “apparent KD of MS2 coat protein” value under setting [3] worked out at 25.1 nM.

Consider “AGCGUUCGGUUUAUGCCGGACAAUGGGUGACGAGGACCGGUACGGCCGCCACUCGGGCGCCCGGUUACAUGAGGAUCACCCAUGU [Oresrile]”, for which the “apparent KD of MS2 coat protein” value was 74.3 nM (input ligand: arginine 13.2 mM), 190 nM under setting [1] and 200 nM under setting [2].

Turning to “AAUAACAUGAGGAUCACCCAUGUAAGUGGGCGAGGACCGGUACGGCCGCCACUCGGAUGAUGUUGACGAAAAGUCAGCAUCAUCA [#OpenEnded 2 #GuTurnoff #Tail]”, the “apparent KD of MS2 coat protein” value runs as follows: (input ligand: arginine 13.2 mM) 25.9 nM; (input ligand: none) 24.7 nM; under setting [1], 31.3 nM; under setting [2], 34.1 nM; under setting [3], 55.1 nM.

For the sequence “GCUAGGUCUACGGCCGCCACUAGACAUGGGUAAGACAUGAGGAUCACCCAUGUACUACGAGUGCAUAGGACCGGGUAGACCUAGC [SSTB NP+V+V2 #19 +-Same Structure]”, the “apparent KD of MS2 coat protein” value was 111 nM (input ligand: arginine 13.2 mM), 277 nM under setting [1] and 516 nM under setting [2].

Consider “GACGAGUAGACGGCCGCCACUAUGCUGCGCAGCCCUAGAAACGCACAUGAGGAUCACCCAUGUCUUAGGACCGGGUCGAACUUAA [theeternabot_sameState_MS2_Trp_B_48]”, for which the “apparent KD of MS2 coat protein” value stood at 47.7 nM (input ligand: arginine 13.2 mM), 107 nM under setting [1] and 96.2 nM under setting [2].

Consider “UACUUGCUGACGGCCGCCACUAGAACAUGAGGAUCACCCAUGUAGGUCCUAGAUUCCUCAUGAACUAGGACCGGGUCAGCAAGAU [(Trp1)-(Ms2)-(T)'-(M)'-(Trp2)_Design15]”, for which the “apparent KD of MS2 coat protein” value (input ligand: arginine 13.2 mM) came out at 53.7 nM, the “apparent KD of MS2 coat protein” value under setting [1] was 201 nM and the “apparent KD of MS2 coat protein” value under setting [2] stood at 221 nM.

On to “GCCGGUACGUCGGCAAAGCCGAUGUGCCAGCGAGGACCGGUACGGCCGCCACUCGUACAUGAGGAUCACCCAUGUCCGGUCCGGC [Omei Trp SS A C v1]”, for which the “apparent KD of MS2 coat protein” value (input ligand: arginine 13.2 mM) is 26.7 nM, the “apparent KD of MS2 coat protein” value under setting [1] stood at 62.5 nM and the “apparent KD of MS2 coat protein” value under setting [2] was determined as 71.8 nM.

On to “CAUACUUUAGUAUGACGUGUGGGCAGUGAUACCAGAUACGAAAGUAUCCCUUGGCAGCACAACAUGAGGAUCACCCAUGUAAUUA [Theophylline A 1]”, for which the “apparent KD of MS2 coat protein” value (input ligand: arginine 13.2 mM) turned out to be 21.9 nM, the “apparent KD of MS2 coat protein” value under setting [1] is 26.6 nM and the “apparent KD of MS2 coat protein” value under setting [3] was 23.1 nM.
